± gives the standard deviation of the averaged measurements.
System: ATP
Assay: switch fluorescence ratio, 500 uM ATP over buffer (Cy3 cluster intensity, sum of 5 cycles each) (fold (ratio)); higher = stronger signal-on switching upon ATP binding; sequences stand for … in TCGTCGGCAGCGTCAGATGTGTATAAGAGACAGTTTTTTTTTTTTTTTTTTTTTTTTT…TC
Details: aptamer strand: ATP DNA aptamer (quencher-CACCTGGGGGAGTATTGCGGAGGAAGG + anchor), 100 nM annealed; ATP concentration: 500 uM
Procedure, shortened: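 Imaging in selection buffer was followed by imaging after 15 min with 500 uM ATP at 22 °C, for Cy3-labelled switching-strand clusters annealed to 100 nM quencher-labelled ATP aptamer on a modified Illumina MiSeq flow-cell. Five of these buffer/ATP cycles ran, separated by NaOH stripping and re-annealing. The fluorescence ratio per cluster is summed target-cycle over summed buffer-cycle Cy3 intensity, averaged per switch-domain sequence; clusters outside 100-1000 RFU were removed.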
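Note: ATP exposure 15 min at 22 °C before imaging.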

Row | Sequence | switch fluorescence ratio
1 | GCTTAACGCT | 0.999 ± 0.019
2 | GCTTAACGTA | 1.05 ± 0.044
3 | GCTTAACTTC | 0.982 ± 0.039
4 | GCTTAAGGGG | 0.989 ± 0.029
5 | GCTTACCCCC | 2.09 ± 0.13
6 | GCTTACTGTA | 1.15 ± 0.024
7 | GCTTAGGTCA | 0.982 ± 0.034
8 | GCTTAGTATA | 1.01 ± 0.019
9 | GCTTAGTGGT | 0.981 ± 0.025
10 | GCTTATGTTC | 1.015 ± 0.0097
11 | GCTTATTCGG | 0.959 ± 0.03
12 | GCTTCAGCAA | 1.03 ± 0.055
13 | GCTTCAGTGA | 1.02 ± 0.019
14 | GCTTCCAGTT | 0.995 ± 0.035
15 | GCTTCCGAGA | 1.87 ± 0.05
16 | GCTTCGAAGG | 0.993 ± 0.031
17 | GCTTCGGGTT | 0.976 ± 0.028
18 | GCTTCTACTG | 0.988 ± 0.034
19 | GCTTCTAGGT | 0.9976 ± 0.0043
20 | GCTTGAGGAG | 1 ± 0.009
21 | GCTTGAGTTC | 1.03 ± 0.025
22 | GCTTGAGTTG | 1.0068 ± 0.0004
23 | GCTTGATGTG | 0.986 ± 0.015
24 | GCTTGCTATG | 0.976 ± 0.014
25 | GCTTGGGAAC | 0.993 ± 0.028

Row | Sequence | switch fluorescence ratio
26 | GCTTGGGGGG | 1.02 ± 0.029
27 | GCTTGGGGTG | 1.02 ± 0.024
28 | GCTTGGGTAT | 1.02 ± 0.062
29 | GCTTGGTTTT | 1.01 ± 0.013
30 | GCTTGTCGGT | 1.022 ± 0.0096
31 | GCTTGTCTTC | 1.005 ± 0.0014
32 | GCTTGTGGAG | 1.02 ± 0.013
33 | GCTTGTTCGG | 1.04 ± 0.011
34 | GCTTTAGTAT | 0.9963 ± 0.0058
35 | GCTTTATGGG | 0.98 ± 0.027
36 | GCTTTCATAT | 0.9996 ± 0.0099
37 | GCTTTCGATC | 1.05 ± 0.033
38 | GCTTTGATGT | 0.9839 ± 0.0032
39 | GCTTTGGATG | 0.968 ± 0.05
40 | GCTTTGGGGC | 1.01 ± 0.02
41 | GCTTTGTATA | 1 ± 0.021
42 | GCTTTGTGAT | 1.01 ± 0.066
43 | GCTTTTAGCG | 0.989 ± 0.055
44 | GCTTTTGAAG | 0.993 ± 0.019
45 | GCTTTTGGCA | 1.019 ± 0.0057
46 | GCTTTTGTAT | 0.991 ± 0.025
47 | GGAAAAATTG | 1.02 ± 0.021
48 | GGAAAAGGGT | 0.998 ± 0.04
49 | GGAAAATACA | 0.985 ± 0.025
50 | GGAAACAGTT | 1 ± 0.032

Row | Sequence | switch fluorescence ratio
51 | GGAAACTTAG | 1.019 ± 0.0089
52 | GGAAAGGGAG | 0.97 ± 0.02
53 | GGAAAGGGGC | 0.95 ± 0.053
54 | GGAAAGTCGT | 1.03 ± 0.018
55 | GGAAATATTT | 0.98 ± 0.016
56 | GGAAATGGGC | 0.97 ± 0.042
57 | GGAAATGTTT | 1.01 ± 0.026
58 | GGAAATTGTG | 1.04 ± 0.052
59 | GGAACAGCGG | 1.001 ± 0.0016
60 | GGAACGAAGA | 0.98 ± 0.028
61 | GGAACGAGAG | 0.989 ± 0.03
62 | GGAACGGGGC | 0.961 ± 0.06
63 | GGAACGGGTG | 1.09 ± 0.17
64 | GGAACGTGTT | 1.004 ± 0.0097
65 | GGAACTCATG | 0.959 ± 0.046
66 | GGAACTTAAG | 0.9794 ± 0.0043
67 | GGAACTTGGT | 0.928 ± 0.087
68 | GGAAGAGGAA | 0.988 ± 0.025
69 | GGAAGAGGTG | 1.09 ± 0.022
70 | GGAAGATTTG | 1.06 ± 0.055
71 | GGAAGCGAAC | 1.47 ± 0.067
72 | GGAAGCGGGT | 0.994 ± 0.042
73 | GGAAGGAGTG | 0.987 ± 0.036
74 | GGAAGGGCTT | 1 ± 0.034
75 | GGAAGGGGAA | 1.01 ± 0.028

Row | Sequence | switch fluorescence ratio
76 | GGAAGGGGAT | 0.9986 ± 0.0061
77 | GGAAGGTA | 0.997 ± 0.03
78 | GGAAGTAGGA | 0.98839 ± 0.00067
79 | GGAAGTAGGT | 0.988 ± 0.02
80 | GGAAGTCTCA | 0.975 ± 0.012
81 | GGAAGTGGTA | 0.976 ± 0.021
82 | GGAAGTTGTA | 1.07 ± 0.13
83 | GGAATAGGGA | 0.982 ± 0.052
84 | GGAATAGTGC | 1.01 ± 0.052
85 | GGAATATAAC | 1 ± 0.045
86 | GGAATATGC | 1.13 ± 0.1
87 | GGAATCAAAC | 0.996 ± 0.0094
88 | GGAATCTGCC | 1.14 ± 0.024
89 | GGAATGACGG | 1.012 ± 0.0024
90 | GGAATGGGTT | 1.01 ± 0.023
91 | GGAATGTGCA | 0.987 ± 0.023
92 | GGAATGTGGT | 1.027 ± 0.002
93 | GGAATTAGTG | 0.995 ± 0.025
94 | GGAATTGAGT | 1.02 ± 0.021
95 | GGAATTGGGG | 1.01 ± 0.027
96 | GGACAAAAAC | 1.02 ± 0.013
97 | GGACAAAAGA | 0.984 ± 0.011
98 | GGACACTGGT | 1.06 ± 0.041
99 | GGACAGGCGC | 1.006 ± 0.0024
100 | GGACATGGCG | 0.943 ± 0.019
